# Measured values published in US20210214440A1 (Janssen / Centocor, published 2021).
# Molecular target: T1, human CD8 on human pan T cells (human, UniProt P01732 22-235; P10966 22-210)
# T1 construct: Native CD8 on the CD4-negative population of human pan T cells
# Assay: flow cytometry, 20 nM mAb on human pan T cells
# Experimental: Secondary antibodies were A647-conjugated goat anti human IgG Fc antibody at 2 μg/mL, and A488-conjugated mouse anti-human CD4 at 1 μg/mL in staining buffer. Live cells were also gated based on OKT8 control mAb binding. Percent CD8 positive population was calculated by percentage of CD8-positive cell count/live cell count.
# T1 sequence (P01732 22-235, chain 1 of 2): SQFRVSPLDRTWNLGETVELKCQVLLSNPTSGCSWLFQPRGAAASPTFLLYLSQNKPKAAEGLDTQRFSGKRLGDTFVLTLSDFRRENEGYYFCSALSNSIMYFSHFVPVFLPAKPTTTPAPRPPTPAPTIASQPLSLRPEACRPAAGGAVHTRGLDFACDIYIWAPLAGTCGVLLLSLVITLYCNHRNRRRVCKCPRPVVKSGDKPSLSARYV
# T1 sequence (P10966 22-210, chain 2 of 2): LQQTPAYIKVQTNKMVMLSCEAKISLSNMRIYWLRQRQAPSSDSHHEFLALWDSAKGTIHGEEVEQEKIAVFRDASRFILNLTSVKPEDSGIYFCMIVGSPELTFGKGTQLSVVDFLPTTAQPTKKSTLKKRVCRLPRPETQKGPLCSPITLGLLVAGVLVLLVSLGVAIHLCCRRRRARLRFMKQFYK
row,Cell Binding to Human PanT Signal/Background (of CD4 negative population),Binder
1,1200,"CD8B347 (antibody, human IgG1, kappa, full-length human IgG1, kappa) heavy: not shown light: DIQMTQSPASLSASVGETVTITCRASGNIHNYLAWYQQKQGKSPQLLVFNAETLADGVPSRFSGSGSGTQFSLKINSLQPEDFGTYYCQHFWNNPLTLGAGTKLELKRTVAAPSVFIFPPSDEQLKSGTASVVCLLNNFYPREAKVQWKVDNALQSGNSQESVTEQDSKDSTYSLSSTLTLSKADYEKHKVYACEVTHQGLSSPVTKSFNRGEC"
2,1090,"CD8B312 (antibody, human IgG1, kappa, V domains shown, full-length human IgG1, kappa) VH: QVQLQQPGADLVKPGASVKLSCKASGYTFTSFWMHWVKQRPGQGLEWIGNVDPSDSQTHYNQKFKDKATLTVDKSSNTAYMQLSSLTSEDSAVYYCARSTYYRYDGPFTYWGQGTTVTVSS VL: DIVLTQSPATLSVTPGDSVSLSCRASQSINNNLHWYQQKSHESPRLLIKYTSQSISGIPSRFSGSGSGPDFTLSINSVETEDFGMYFCQQSNSWPLTFGGGTKLEIKR"
3,777,"CD8B356 (antibody, human IgG1, kappa, V domains shown, full-length human IgG1, kappa) VH: DVQLQESGPGLVKPSQSLSLTCSVTGYSITSGYYWNWIRQFPGNKLEWMGYISYDGSNNYNPSLKNRISITRDTSKNQFFLKLNSVTTEDTATYYCVRNHGDAMDYWGQGTSVTVSS VL: DIVLTQSQKFMSTTVGDRVSITCKASQNVGTAVAWYQQKPGQSPKLLIYSASYRYTGVPDRFTGSGSGTHFTLTISNMQSEDLADYFCQQYSSYLTFGSGTKLEIKR"
4,26,"CD8B269 (antibody, human IgG1, kappa, V domains shown, full-length human IgG1, kappa) VH: DVQLQESGPGLVKPSQSLSLTCSVTGYSITSGYYWNWIRQFPGNKLEWMGYISYDGSNNYNPSLKNRISITRDTSKNQFFLKLNSVTTEDTATYYCVRNHGDAMDHWGQGTTLTVSS VL: DIVMTQSQKFMSTSVGDRVRVTCKASQNVGTDVAWYQQKPGQSPKALIYSASYRYSGVPDRFTGSGSGTDFTLTISDVQSEDLAEYFCQQYKSYPLTFGAGTKLELKR"
5,1180,"CD8B303 (antibody, human IgG1, kappa, V domains shown, full-length human IgG1, kappa) VH: QVQLKESGPGLVAPSQSLSITCTVSGFSLSIYSIHWVRQPPGKGLEWLGMIWGGGSTDYNSTLNSRLSIIKDNSKSQVFLKMNSLQTDDTAMYYCARNPHHYGGSTGAMDYWGQGTTVTVSS VL: DVQMIQSPSSLSASLGGTVTITCKASQDIKKYMAWYQHKPGKGPRLLIHYTSSLQPGIPSRFSGSGSGRDYYFSISNLEPEDIATYFCLQYDNLFTFGSGTKLELKR"
6,1990,"CD8B200 (antibody, human IgG1, kappa, V domains shown, full-length human IgG1, kappa) VH: EVQLQQSGAELVKPGASVKLSCKASGYTFTNYWIHWVKQRPGQGLEWIGNIDPSDSETHYNQKFKDKATLTVDKSSSTAYMQLISLTSEDSAVYYCASGLTGTGYYWGQGTTLTVSS VL: DIQMTQTTSSLSASLGDRVTITCRASQDISPYLNWYQQKPEGTIKLLIYYTSKLHSGVPSRFSGSGSGTDYSLTISNLEQEDIATYFCQQDNTLPYTFGSGTKLELKR"
7,1110,"CD8B246 (antibody, human IgG1, kappa, V domains shown, full-length human IgG1, kappa) VH: QVQLKESGPGILKPSQTLSLTCSFSGFSLSTSGMNVGWIRQPSGKGLEWLAHIWWDDDKYYNPSLKSQLTISKDTSRNQVFLKITSVDTADTATYYCARRGNYGNYEFAYWGQGTTLTVSS VL: DIQMTQTTSSLSASLGDRVTISCRASQDIRNYLNWYQQKPDGTVKLLIYHTSRLHSGVPSRFSGSGSGTDYSLTISNLEQEDIATYFCQQGNTLPWTFGAGTKLELKR"
8,923,"CD8B304 (antibody, human IgG1, kappa, V domains shown, full-length human IgG1, kappa) VH: QVTLKESGPGILKPSQTLSLTCSFSGFSLSTSGMNVGWIRQPSGKGLEWLAHIWWDDDKYYNPSLKSQLTISKDTSRNQVFLKITSVDTADTATYYCARRGNYGNYEFAYWGQGTTVTVSS VL: DIQMTQTTSSLSASLGDRVTISCRASQDIRNYLNWYQQKPDGTVKLLIYHTSRLHSGVPSRFSGSGSGTDYSLTISNLDQEDIATYFCQQGNTLPWTFGAGTKLELKR"
9,2500,"CD8B270 (antibody, human IgG1, kappa, V domains shown, full-length human IgG1, kappa) VH: QVQLQQPGAELVKPGASVMLSCKASGYTFTNYWMHWVKQRPGQGLEWIGNIDPSDSETHYNQKFKDKATLTVDKSSSTAYMQLSSLTSEDSAVYYCASGLTGTGYYWGQGTTLTVSS VL: DIQMTQTTSSLSASLGDRVTITCRASQDIRPYLNWYQQKPEGTIKLLIYFTSKLHSGVPSRFSGSGSGTDYSLTISNLEQEDIATYFCQQDNTLPYTFGSGTKLELKR"
10,827,"CD8B213 (antibody, human IgG1, kappa, V domains shown, full-length human IgG1, kappa) VH: EVQLQQSGPELVKPGDSMKMSCKASGYIFTDYYMDWVKQSHGKSLEWIGYIYPNNGITSYNQKFKGRATLTIDKSSSTAYMELHSLTSEDSAVYYCARSIYYDHGGGFPYWGQGTSVTVSS VL: DIVLTQSQKFMSTSVGDRVSVTCKASQNVDKYVAWYQQKPGQSPKALIYSASYRYSGVPDRFTGSGSGTDFTLTISNVQSEDLAEYFCQQYNTYPSFGSGTKLEMKR"
11,1050,"CD8B361 (antibody, human IgG1, kappa, V domains shown, full-length human IgG1, kappa) VH: EVQLQQSGPELVKPGNSVKMSCKASGYTFTDYYMDWVKQSHGTSLEWIGYIYPNNGDTRYNQKFKDKATLTVDKSSSTAYMELHSLTSEDSAVFYCARSIYYDHGGGFPYWGQGTLVTVSA VL: DIVMTQSQKFMSTSVGDRVSVTCKASQNVGTYVAWYQQKPGQSPKALIYSASYRYSGVPDRFTGSGSGTDFTLTINNVQSEDLAEYLCQQYNSYPTFGGGTRLEIKR"
12,911,"CD8B271 (antibody, human IgG1, kappa, V domains shown, full-length human IgG1, kappa) VH: DVQLQESGPGLVAPSQSLSITCTVSGFSLSIYSIHWVRQPPGKGLEWLGMIWGGGDTDYNSALKSRLSISKDNSESQVFLKMNSLQTDDTAMYYCARNPHYYGGTYEYFDVWGTGTTVTVSS VL: DIQMTQTTSSLSASLGDRVTISCSASQGISNYLNWYQQKPDGTVKLLIYDTSILYSGVPSRFSGSGSGTDYSLTISNLEPEDVATYYCQQYSNLPYTFGSGTKLEIKR"
13,1490,"CD8B182 (antibody, human IgG1, kappa, V domains shown, full-length human IgG1, kappa) VH: EVQLQQSGAALAKPGTSVKMSCKASGYTFTSYWMNWVRQRPGQGLEWIGAVNPTNYYTEYIQKFKDKAILTADKSSSTAYMHLSGLTSEDSAVYYCARSGLYNTNHLAWFAYWGQGTTVTVSS VL: DIKMTQSPASLSASVGETVTITCRASENIHNYLAWYQQIQGKSPQLLVYNAKTLANGVPSRFSGSASGTQFSLTINSLQPEDFGSYYCQHFWTTPLTFGAGTKLELKR"
14,1560,"CD8B364 (antibody, human IgG1, kappa, V domains shown, full-length human IgG1, kappa) VH: QVQLQQPGAELVKPGASVKLSCKASGYTFTSYWMHWVNRRPGQGLEWIGEINPSNGDSYYNEKFKRKATLTVDISSSTAYMQLSSLTSEDSAVYYCTRSMYYDGRAGAYWGQGTTVTVSS VL: DIVLTQSPASLSVATGEKVTIRCITSTDIDDDMNWYQQKPGEPPKLLISEGNTLRPGVPSRFSSSGYGTDFVFTIENTLSEDVADYYCLQSDNMPLTFGAGTKLELKR"
15,1170,"CD8B268 (antibody, human IgG1, kappa, V domains shown, full-length human IgG1, kappa) VH: QVQLQQSGAELVKPGASVKLSCKASGYTFTVYTIHWVKQRSGQGLEWIGWFYPGSGNIKYNEKFKDKATLTADKSSHTVYMELSRLTSEDSAVYFCARHEDNHYYDGNSWFAYWGQGTLVTVSA VL: DIQMTQSPASLSASVGQTVTITCRASGNIHNYLAWFQQKQGKSPQLLVYNAKTLADGVPSRFSGSGSGTQYSLKINSLQTEDFGNYYCQHFWNTPYTFGGGTKLEIKR"
16,537,"CD8B350 (antibody, human IgG1, kappa, V domains shown, full-length human IgG1, kappa) VH: EVQLQQSGAELAKPGTSVKMSCKASGYTFAAYWINWLKQRPGQGLEWIGSINPSNGYTEYSQKFKDKAILTADKSSSTAYMQLSSLTSEDSAVYYCSRSGLYYTNHLAWCPYWGQGTTVTVSS VL: DIVMTQSPASLSASVGETVTITCRASGNIHNYLAWYQQKQGKSPQVLVYNAETLADSVPSRFSGSGSGTQFSLKINSLQPEDFGNYYCQHFWNSPLTFGGGTKLEIKR"
17,938,"CD8B273 (antibody, human IgG1, kappa, V domains shown, full-length human IgG1, kappa) VH: QVQLQQSGAELVKPGASVKLSCKASGYTFTEYTIHWVKQRSGQGLEWIGWFYPGTGSIKYNEKFKDKATLTADKSSHTVYMELSKLTSEDSAVYFCARHEDNHYYDGNSWFAYWGQGTLVTVSA VL: DIQMTQSPASLSASVGETVTITCRASGNIHNYLAWFQQKQGKSPQLLVYNAKTLADGVPSRFSGSGSGTQYSLKINSLQAEDFGSYYCQHFWSTPYTFGSGTKLEIKR"
18,37,"CD8B251 (antibody, human IgG1, kappa, V domains shown, full-length human IgG1, kappa) VH: QVQLKGSGPGLVQPSQSLSITCTVSGFSLTTYAVHWVRQSPGKGLEWLGVIWSGGSTDYNAAFISRLSISKDNSKSQVFFKMNSLQADDTAIYYCARHSYYHYNAMDNWGQGTSVTVSS VL: DIKMTQSQKFMSTTVGDRVSITCKASQNVGTAVAWYQQKPGQSPKLLIYSASNRYTGVPDRFTGSGSGTDFTLTISNMQSEDLADYFCQQYSSYPFTFGSGTKLEIKR"
19,1310,"CD8B240 (antibody, human IgG1, kappa, full-length human IgG1, kappa) heavy: not shown light: DIVMTQSPATLSVTPGDRVSLSCRASQSISDFLHWYQQKSHESPRLLIKYASQSISGIPSRFSGSGSGSDFTLTINSVEPEDVGVYYCQNGHSFPYTFGSGTKLEIKRTVAAPSVFIFPPSDEQLKSGTASVVCLLNNFYPREAKVQWKVDNALQSGNSQESVTEQDSKDSTYSLSSTLTLSKADYEKHKVYACEVTHQGLSSPVTKSFNRGEC"
20,2440,"CD8B191 (antibody, human IgG1, kappa, full-length human IgG1, kappa) heavy: not shown light: DIVLTQSPATLSVTPGDRVSLSCRASQSISDFLHWYQQKSHESPRLLIKYASQSISGIPSRFSGSGSGSDFTLTINSVEPEDVGVYYCQNGHSFPYTFGSGTKLEIKRTVAAPSVFIFPPSDEQLKSGTASVVCLLNNFYPREAKVQWKVDNALQSGNSQESVTEQDSKDSTYSLSSTLTLSKADYEKHKVYACEVTHQGLSSPVTKSFNRGEC"
